This assay concerns the target NS3pro protease of dengue virus 2 (strain S16803) (dengue virus 2 (strain S16803)). The assay can be described thus: cell-based or functional assay.

As for YGRKKRRQRRRPPQGGGSSPILSITISEDG [peptide NS2Bden2+TAT (peptide 1 of table 1)], the “IC50 of inhibition of DV2 infection, plaque reduction neutralization assay in Vero cells” value fell in the range of 50 to 60 µM.

Values taken from patent publication US8674063 (CENTRO DE INGENIERIA GENETICA Y BIOTECNOLOGIA, dated 2014).
